According to paper PMC8442874:

Molecular target: Soc-SpyCatcher fusion protein (displayed on T4 phage: T4-SpyCatcher phage) (bacteriophage T4)
Test: co-sedimentation

“S-ecto-6P-SpyTagged trimer (prefusion-stabilized hexa-Pro SARS-CoV-2 spike ectodomain with C-terminal SpyTag) (from UniProt P0DTC2 14-1208) (domain or fragment)” showed a copies per capsid (S-trimers per phage capsid) of 100.
